Measured values from patent US20020173621A1, “Method for producing dimerized polypeptide fusions” (ZymoGenetics, Inc., published 2002).

B1: PDGF-BB (ligand)
chain: SLGSLTIAEPAMIAECKTRTEVFEISRRLIDRTNANFLVWPPCVEVQRCSGCCNNRNVQCRPTQVQLRPVQVRKIEIVRKKPIFKKATVTLEDHLACKCETVAAARPVT

Tests used:
[1] = target: tetrameric PDGF β-receptor analog (purified from pSDL114+pSDL113 co-transfected cells) (human); assay: saturation binding, analog plated at 24.3 ng/ml on goat anti-human IgG coated wells
[2] = target: tetrameric PDGF β-receptor analog (purified from pSDL114+pSDL113 co-transfected cells) (human); assay: saturation binding, analog plated at 12.1 ng/ml on goat anti-human IgG coated wells
[3] = target: T1, tetrameric PDGF β-receptor analog (purified from pSDL114+pSDL113 co-transfected cells) (human); assay: solid phase radioreceptor competition binding assay, analog plated at 48.6 ng/ml, unlabeled PDGF-BB against 125I-labeled PDGF-BBTyr
T1 heavy: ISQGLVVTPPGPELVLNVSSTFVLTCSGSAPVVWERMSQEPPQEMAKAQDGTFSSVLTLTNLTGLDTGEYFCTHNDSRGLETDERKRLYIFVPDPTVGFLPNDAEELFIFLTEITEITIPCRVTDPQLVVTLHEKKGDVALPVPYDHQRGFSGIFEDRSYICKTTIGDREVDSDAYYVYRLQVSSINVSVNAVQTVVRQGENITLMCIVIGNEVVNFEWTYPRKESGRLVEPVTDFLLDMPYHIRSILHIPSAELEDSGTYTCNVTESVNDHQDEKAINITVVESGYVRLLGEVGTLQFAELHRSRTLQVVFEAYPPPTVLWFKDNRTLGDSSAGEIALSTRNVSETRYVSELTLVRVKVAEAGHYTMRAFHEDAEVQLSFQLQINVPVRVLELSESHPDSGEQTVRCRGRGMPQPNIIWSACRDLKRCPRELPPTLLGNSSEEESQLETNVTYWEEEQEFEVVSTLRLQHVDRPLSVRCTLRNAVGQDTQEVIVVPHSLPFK
T1 light: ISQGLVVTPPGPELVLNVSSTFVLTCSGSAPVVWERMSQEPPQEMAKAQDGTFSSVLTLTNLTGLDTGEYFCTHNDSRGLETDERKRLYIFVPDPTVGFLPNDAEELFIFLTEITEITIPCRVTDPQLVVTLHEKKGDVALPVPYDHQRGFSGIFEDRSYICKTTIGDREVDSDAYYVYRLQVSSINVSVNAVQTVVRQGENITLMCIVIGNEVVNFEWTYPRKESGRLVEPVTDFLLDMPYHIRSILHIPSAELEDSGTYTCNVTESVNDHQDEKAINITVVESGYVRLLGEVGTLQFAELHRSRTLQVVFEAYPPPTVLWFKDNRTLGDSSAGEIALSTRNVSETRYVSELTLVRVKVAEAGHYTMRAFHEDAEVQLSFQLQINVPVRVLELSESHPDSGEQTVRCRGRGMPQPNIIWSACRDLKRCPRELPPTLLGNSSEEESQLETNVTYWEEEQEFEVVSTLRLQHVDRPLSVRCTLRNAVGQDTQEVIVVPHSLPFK
Experimental: In a solid phase radioreceptor competition binding assay (RRA), the wells of 96-well microtiter plates were coated with 100 μl of 2 μg/ml affinity purified goat anti-human IgG (Cappel Labs) diluted in 0.1 M Na₂HCO₃, pH 9.6. After an eighteen hour incubation at 4° C., the wells were washed once with ELISA C. The wells were blocked by incubation for 2 hours at 37° C. with 175 μl/well ELISA B. […] The unbound receptor was removed, and the test wells were incubated with increasing concentrations of serially diluted, unlabeled PDGF-BB (diluted in binding media. Following a two hour incubation at room temperature, the wells were washed three times with binding media. One hundred microliters of 5 ng/ml ¹²⁵I-labeled PDGF-BBTyr (Example 18.F.) was added to each well, and the plates were incubated for an additional two hours at room temperature. The wells were washed three times with binding media followed by a 5 minute incubation with 100 μl/well of 0.1 M citrate, pH 2.5. The samples were harvested and counted in a gamma counter.

Molecule	half-maximal binding [1]	half-maximal binding [2]	IC50 [3]
PDGF-BBTyr (PDGF-BB mutant molecule having a tyrosine replacing the phenylalanine at position 23) (from UniProt P01127) (ligand)	0.82 ng/mL	0.8 ng/mL	–
B1	–	–	8 ng/mL
